Data on 2 substances can be found in doi:10.1101/2021.05.10.443506.

In assay [1] the target is mCherry-Nup153-IDR-NLS-LacI. Put plainly: LacO array recruitment.
Assay [2] addresses mCherry-Med1-IDR-NLS-LacI. Put plainly: LacO array recruitment.

mCherry-Nup153-IDR-NLS-LacI, sequence (P49790 2-1475): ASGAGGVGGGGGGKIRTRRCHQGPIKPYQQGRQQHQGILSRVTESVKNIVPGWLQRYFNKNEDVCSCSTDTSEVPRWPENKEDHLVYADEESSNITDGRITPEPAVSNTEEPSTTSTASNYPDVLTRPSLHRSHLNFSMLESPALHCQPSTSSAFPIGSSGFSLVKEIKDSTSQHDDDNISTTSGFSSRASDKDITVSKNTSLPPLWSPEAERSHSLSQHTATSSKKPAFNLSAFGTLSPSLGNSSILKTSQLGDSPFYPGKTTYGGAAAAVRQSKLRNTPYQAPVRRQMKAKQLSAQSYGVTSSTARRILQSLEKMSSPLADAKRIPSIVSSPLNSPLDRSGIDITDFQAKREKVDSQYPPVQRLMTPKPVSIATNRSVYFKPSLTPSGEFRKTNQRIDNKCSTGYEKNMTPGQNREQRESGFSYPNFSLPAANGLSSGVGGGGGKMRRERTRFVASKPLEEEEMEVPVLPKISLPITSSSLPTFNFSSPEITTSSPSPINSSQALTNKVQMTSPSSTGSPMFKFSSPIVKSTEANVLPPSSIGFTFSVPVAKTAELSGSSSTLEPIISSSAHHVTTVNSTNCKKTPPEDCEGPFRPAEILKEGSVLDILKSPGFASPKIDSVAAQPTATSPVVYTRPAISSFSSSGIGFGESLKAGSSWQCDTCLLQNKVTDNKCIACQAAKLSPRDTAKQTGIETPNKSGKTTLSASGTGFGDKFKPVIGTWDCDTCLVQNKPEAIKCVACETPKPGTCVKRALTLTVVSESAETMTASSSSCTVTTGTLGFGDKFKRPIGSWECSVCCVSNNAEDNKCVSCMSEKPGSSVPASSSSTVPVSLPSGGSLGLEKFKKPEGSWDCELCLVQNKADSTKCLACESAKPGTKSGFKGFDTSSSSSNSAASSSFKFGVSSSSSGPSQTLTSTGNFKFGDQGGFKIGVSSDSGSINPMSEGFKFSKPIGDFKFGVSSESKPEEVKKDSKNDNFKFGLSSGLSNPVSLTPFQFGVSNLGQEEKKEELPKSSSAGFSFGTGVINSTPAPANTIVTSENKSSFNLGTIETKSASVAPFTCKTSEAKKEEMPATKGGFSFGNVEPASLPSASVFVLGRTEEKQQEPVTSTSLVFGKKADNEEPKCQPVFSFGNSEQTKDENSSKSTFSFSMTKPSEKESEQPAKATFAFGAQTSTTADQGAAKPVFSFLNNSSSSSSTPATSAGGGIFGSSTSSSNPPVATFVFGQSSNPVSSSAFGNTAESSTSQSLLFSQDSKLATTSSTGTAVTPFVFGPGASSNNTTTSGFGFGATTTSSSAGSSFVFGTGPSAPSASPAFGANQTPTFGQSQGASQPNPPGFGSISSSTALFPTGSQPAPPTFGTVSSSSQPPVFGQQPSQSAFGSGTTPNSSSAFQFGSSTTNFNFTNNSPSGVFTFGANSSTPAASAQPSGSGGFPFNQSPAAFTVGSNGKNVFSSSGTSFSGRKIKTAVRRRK
mCherry-Med1-IDR-NLS-LacI, sequence (Q15648 whole entry): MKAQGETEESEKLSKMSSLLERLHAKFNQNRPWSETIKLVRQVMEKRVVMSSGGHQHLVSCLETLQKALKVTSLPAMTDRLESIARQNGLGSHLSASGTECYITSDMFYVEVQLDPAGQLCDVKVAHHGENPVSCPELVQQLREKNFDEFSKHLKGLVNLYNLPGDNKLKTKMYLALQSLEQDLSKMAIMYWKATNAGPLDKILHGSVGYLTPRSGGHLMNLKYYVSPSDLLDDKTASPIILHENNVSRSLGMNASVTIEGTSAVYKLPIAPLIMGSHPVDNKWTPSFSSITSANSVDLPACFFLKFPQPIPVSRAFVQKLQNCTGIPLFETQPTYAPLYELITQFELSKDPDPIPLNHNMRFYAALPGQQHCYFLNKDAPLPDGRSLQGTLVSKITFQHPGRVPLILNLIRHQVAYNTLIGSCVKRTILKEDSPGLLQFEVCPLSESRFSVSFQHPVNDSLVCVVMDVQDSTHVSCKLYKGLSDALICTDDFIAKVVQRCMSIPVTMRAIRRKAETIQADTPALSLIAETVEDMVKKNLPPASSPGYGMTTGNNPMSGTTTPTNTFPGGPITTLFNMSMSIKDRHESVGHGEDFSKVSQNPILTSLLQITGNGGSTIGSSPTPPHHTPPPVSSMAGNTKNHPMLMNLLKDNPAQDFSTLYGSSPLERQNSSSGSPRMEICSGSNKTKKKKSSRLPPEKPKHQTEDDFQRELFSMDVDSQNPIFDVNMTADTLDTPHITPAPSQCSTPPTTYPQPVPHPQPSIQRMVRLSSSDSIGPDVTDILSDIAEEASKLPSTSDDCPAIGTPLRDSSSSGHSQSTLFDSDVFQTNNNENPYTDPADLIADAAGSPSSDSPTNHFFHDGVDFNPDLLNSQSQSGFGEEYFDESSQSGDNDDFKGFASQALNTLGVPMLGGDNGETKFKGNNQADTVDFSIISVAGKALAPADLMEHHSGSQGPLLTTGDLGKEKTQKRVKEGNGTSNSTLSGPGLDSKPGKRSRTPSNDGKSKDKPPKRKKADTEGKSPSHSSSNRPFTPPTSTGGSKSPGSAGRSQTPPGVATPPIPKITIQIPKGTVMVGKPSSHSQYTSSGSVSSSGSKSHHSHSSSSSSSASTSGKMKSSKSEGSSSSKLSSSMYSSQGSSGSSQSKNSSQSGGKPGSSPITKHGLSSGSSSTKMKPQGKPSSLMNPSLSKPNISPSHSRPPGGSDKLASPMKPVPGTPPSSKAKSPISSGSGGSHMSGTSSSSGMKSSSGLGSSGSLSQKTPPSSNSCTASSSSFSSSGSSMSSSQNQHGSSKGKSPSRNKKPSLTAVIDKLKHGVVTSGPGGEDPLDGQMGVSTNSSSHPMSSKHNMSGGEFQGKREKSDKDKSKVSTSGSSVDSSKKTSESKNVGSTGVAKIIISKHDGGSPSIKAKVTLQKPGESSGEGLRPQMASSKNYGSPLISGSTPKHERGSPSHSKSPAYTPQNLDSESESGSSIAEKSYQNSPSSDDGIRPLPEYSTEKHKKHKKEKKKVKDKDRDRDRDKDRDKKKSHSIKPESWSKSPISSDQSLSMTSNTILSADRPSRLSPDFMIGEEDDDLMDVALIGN
EGFP-Med1-NLS (Med1 IDR fused to GFP) (domain or fragment), sequence (Q15648 whole entry, the tested form may be a part): as the sequence (Q15648 whole entry) above

As for “EGFP-Med1-NLS (Med1 IDR fused to GFP) (domain or fragment)”, the percent of cells with colocalized GFP and mCherry signal in assay [1] was 13 % of cells.

With “EGFP-PolII CTD52-NLS (domain or fragment)”, the results for the percent of cells with colocalized GFP and mCherry signal in assay [2] and in assay [1] were 53 % of cells and 67 % of cells, respectively.
